Source: article PMC2862490 (Proteomics, 2009)
Square brackets hold non-standard residues; d marks the D form. Ends that are not written are not given here. pY = N[C@@H](Cc1ccc(OP(=O)(O)O)cc1)C(=O)O; Ahx = NCCCCCC(=O)O

T1: GST tagged N SH2 domain of PLCγ-1 (544–659) (human, UniProt P19174 544-659)
T1 sequence (looked up): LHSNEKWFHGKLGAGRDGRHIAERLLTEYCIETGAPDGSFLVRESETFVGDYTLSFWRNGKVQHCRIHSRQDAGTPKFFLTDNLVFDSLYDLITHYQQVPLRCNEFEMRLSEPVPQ

T2: GST tagged C SH2 domain of PLCγ-1 (663–759) (human, UniProt P19174 663-759)
T2 sequence (looked up): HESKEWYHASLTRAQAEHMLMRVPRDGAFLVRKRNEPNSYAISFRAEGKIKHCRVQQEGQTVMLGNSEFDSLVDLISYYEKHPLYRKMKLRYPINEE


Key:
[1] = biological target: PLCγ-1 C SH2 domain, 663-759 (UniProt P19174); test: immobilised peptide pull-down, anti-GST blot; conditions: reference: unphosphorylated Y4507 peptide; sites Y4507
[2] = biological target: PLCγ-1 N SH2 domain, 544-659 (UniProt P19174); test: immobilised peptide pull-down, anti-GST blot; conditions: reference: unphosphorylated Y4507 peptide; sites Y4507
Grb2 SH2 domain, 58-159 = Grb2 SH2 domain, 58-159 (UniProt P62993); test: immobilised peptide pull-down, anti-GST blot; conditions: reference: unphosphorylated Y4507 peptide; sites Y4507
CSK, His tagged = CSK, His tagged (UniProt P41240); test: immobilised peptide pull-down, anti-CSK blot; conditions: reference: unphosphorylated Y4507 peptide; sites Y4507
[3] = biological target: Shp-2 (Shp2) SH2(C) domain (UniProt Q06124); test: immobilised peptide pull-down, anti-ubiquitin tag blot; conditions: reference: unphosphorylated Y4507 peptide; sites Y4507
[4] = biological target: Shp-2 (Shp2) SH2(N) domain (UniProt Q06124); test: as above; conditions: reference: unphosphorylated Y4507 peptide; sites Y4507
[5] = biological target: T1, GST tagged N SH2 domain of PLCγ-1 …; test: pull-down
[6] = biological target: T2, GST tagged C SH2 domain of PLCγ-1 …; test: pull-down
[7] = biological target: GST tagged SH2 domain of Grb2 (58–159) (human, UniProt P62993 58-159); test: pull-down

| Molecule | binding against the reference [1] | binding against the reference [2] | binding against the reference (Grb2 SH2 domain, 58-159) | binding against the reference (CSK, His tagged) | binding against the reference [3] | binding against the reference [4] | binding result [5] | binding result [6] | binding result [7] |
| --- | --- | --- | --- | --- | --- | --- | --- | --- | --- |
| LDL receptor-related protein 1 (LRP1) NPXY4507 microdomain (from UniProt Q07954) pY4507 peptide | stronger | stronger | stronger | stronger | stronger | stronger | – | – | – |
| C[Ahx]TNFTNPV[pY]ATLY [NPXpY_(4507) microdomain of LRP1-CT, tyrosine-phosphorylated] | – | – | – | – | – | – | binds | binds | binds |
